In patent US20230340054A1 (published 2023):

Experiments:
[1] = molecular target: F906-(G2S1)4-IL2(E62A)-(G2S1)6-HLE (IL-2mut); assay: BLI
[2] = molecular target: F906-(G2S1)4-IL2-(G2S1)6-HLE (IL2wt); assay: BLI

Kd [1]: ~40 nM | Kd [2]: ~40 nM
B1: CD122 (receptor)
chain: AVNGTSQFTCFYNSRANISCVWSQDGALQDTSCQVHAWPDRRRWNQTCELLPVSQASWACNLILGAPDSQKLTTVDIVTLRVLCREGVRWRVMAIQDFKPFENLRLMAPISLQVVHVETHRCNISWEISQASHYFERHLEFEARTLSPGHTWEEAPLLTLKQKQEWICLETLTPDTQYEFQVRVKPLQGEFTTWSPWSQPLAFRTKPAALGKD
modifications: biotinylated (site not stated)
